This note sets out measurements from publication doi:10.1101/681668 (bioRxiv, 2019).

First the molecules themselves.
T1: MBP-ORC1 (human, UniProt Q13415 1-861)
T1 sequence: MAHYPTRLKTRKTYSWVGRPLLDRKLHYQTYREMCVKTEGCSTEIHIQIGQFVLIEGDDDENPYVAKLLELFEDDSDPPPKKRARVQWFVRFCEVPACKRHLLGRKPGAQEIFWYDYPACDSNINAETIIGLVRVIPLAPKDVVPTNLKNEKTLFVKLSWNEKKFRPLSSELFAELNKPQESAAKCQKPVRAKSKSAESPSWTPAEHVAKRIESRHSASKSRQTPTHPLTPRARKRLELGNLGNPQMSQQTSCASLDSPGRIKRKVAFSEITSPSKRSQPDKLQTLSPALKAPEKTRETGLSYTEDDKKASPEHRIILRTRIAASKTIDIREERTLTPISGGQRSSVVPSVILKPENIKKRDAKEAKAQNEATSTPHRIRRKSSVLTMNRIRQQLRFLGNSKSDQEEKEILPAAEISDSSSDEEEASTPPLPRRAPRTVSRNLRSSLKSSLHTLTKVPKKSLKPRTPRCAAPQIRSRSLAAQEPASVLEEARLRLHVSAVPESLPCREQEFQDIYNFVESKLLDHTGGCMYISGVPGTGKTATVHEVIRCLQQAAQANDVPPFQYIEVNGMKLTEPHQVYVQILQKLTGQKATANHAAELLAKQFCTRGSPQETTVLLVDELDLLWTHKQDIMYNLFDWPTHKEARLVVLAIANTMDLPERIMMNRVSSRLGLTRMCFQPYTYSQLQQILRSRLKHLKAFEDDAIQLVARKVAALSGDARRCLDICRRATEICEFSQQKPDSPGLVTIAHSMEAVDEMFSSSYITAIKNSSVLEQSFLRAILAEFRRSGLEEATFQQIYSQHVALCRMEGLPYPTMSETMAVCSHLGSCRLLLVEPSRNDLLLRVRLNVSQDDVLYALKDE

T2: ORC1 230-400-His (human, UniProt Q13415 230-400)
T2 sequence: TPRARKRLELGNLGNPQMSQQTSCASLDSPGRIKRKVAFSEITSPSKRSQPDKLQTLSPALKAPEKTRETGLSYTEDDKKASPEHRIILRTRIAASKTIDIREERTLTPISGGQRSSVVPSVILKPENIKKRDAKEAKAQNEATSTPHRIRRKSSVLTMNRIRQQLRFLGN

T3: GST-CDC6 (human, UniProt Q99741 1-560)
T3 sequence: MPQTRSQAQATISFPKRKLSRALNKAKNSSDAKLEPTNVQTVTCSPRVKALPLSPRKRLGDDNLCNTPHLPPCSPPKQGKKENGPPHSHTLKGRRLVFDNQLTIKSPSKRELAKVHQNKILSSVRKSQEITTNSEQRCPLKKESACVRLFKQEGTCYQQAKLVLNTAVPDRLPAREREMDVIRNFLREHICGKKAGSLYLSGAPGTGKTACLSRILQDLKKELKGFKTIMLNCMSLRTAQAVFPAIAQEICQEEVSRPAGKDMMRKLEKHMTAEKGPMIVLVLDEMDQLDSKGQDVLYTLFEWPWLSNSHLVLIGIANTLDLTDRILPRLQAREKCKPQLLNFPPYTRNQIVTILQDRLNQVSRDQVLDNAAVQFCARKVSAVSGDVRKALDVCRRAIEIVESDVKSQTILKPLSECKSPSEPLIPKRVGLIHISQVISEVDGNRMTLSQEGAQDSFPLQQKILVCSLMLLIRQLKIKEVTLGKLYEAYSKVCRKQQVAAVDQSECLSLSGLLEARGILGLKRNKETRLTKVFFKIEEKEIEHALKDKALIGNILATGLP

B1: GST-CDC6 with internal deletion of 11-20 (natural protein)
chain: MPQTRSQAQARALNKAKNSSDAKLEPTNVQTVTCSPRVKALPLSPRKRLGDDNLCNTPHLPPCSPPKQGKKENGPPHSHTLKGRRLVFDNQLTIKSPSKRELAKVHQNKILSSVRKSQEITTNSEQRCPLKKESACVRLFKQEGTCYQQAKLVLNTAVPDRLPAREREMDVIRNFLREHICGKKAGSLYLSGAPGTGKTACLSRILQDLKKELKGFKTIMLNCMSLRTAQAVFPAIAQEICQEEVSRPAGKDMMRKLEKHMTAEKGPMIVLVLDEMDQLDSKGQDVLYTLFEWPWLSNSHLVLIGIANTLDLTDRILPRLQAREKCKPQLLNFPPYTRNQIVTILQDRLNQVSRDQVLDNAAVQFCARKVSAVSGDVRKALDVCRRAIEIVESDVKSQTILKPLSECKSPSEPLIPKRVGLIHISQVISEVDGNRMTLSQEGAQDSFPLQQKILVCSLMLLIRQLKIKEVTLGKLYEAYSKVCRKQQVAAVDQSECLSLSGLLEARGILGLKRNKETRLTKVFFKIEEKEIEHALKDKALIGNILATGLP
B2: GST-CDC6 with internal deletion of 21-30 (natural protein)
chain: B1 chain with R11T, A12I, L13S, N14F, K15P, A16K, K17R, N18K, S19L
B3: GST-CDC6 with internal deletion of 51-70 (natural protein)
chain: MPQTRSQAQATISFPKRKLSRALNKAKNSSDAKLEPTNVQTVTCSPRVKAPPCSPPKQGKKENGPPHSHTLKGRRLVFDNQLTIKSPSKRELAKVHQNKILSSVRKSQEITTNSEQRCPLKKESACVRLFKQEGTCYQQAKLVLNTAVPDRLPAREREMDVIRNFLREHICGKKAGSLYLSGAPGTGKTACLSRILQDLKKELKGFKTIMLNCMSLRTAQAVFPAIAQEICQEEVSRPAGKDMMRKLEKHMTAEKGPMIVLVLDEMDQLDSKGQDVLYTLFEWPWLSNSHLVLIGIANTLDLTDRILPRLQAREKCKPQLLNFPPYTRNQIVTILQDRLNQVSRDQVLDNAAVQFCARKVSAVSGDVRKALDVCRRAIEIVESDVKSQTILKPLSECKSPSEPLIPKRVGLIHISQVISEVDGNRMTLSQEGAQDSFPLQQKILVCSLMLLIRQLKIKEVTLGKLYEAYSKVCRKQQVAAVDQSECLSLSGLLEARGILGLKRNKETRLTKVFFKIEEKEIEHALKDKALIGNILATGLP
B4: GST-CDC6 1-110 (domain or fragment)
chain: MPQTRSQAQATISFPKRKLSRALNKAKNSSDAKLEPTNVQTVTCSPRVKALPLSPRKRLGDDNLCNTPHLPPCSPPKQGKKENGPPHSHTLKGRRLVFDNQLTIKSPSKR
B5: MBP-ORC1-100-250 (domain or fragment)
chain: RHLLGRKPGAQEIFWYDYPACDSNINAETIIGLVRVIPLAPKDVVPTNLKNEKTLFVKLSWNEKKFRPLSSELFAELNKPQESAAKCQKPVRAKSKSAESPSWTPAEHVAKRIESRHSASKSRQTPTHPLTPRARKRLELGNLGNPQMSQQ
B6: MBP-ORC1 1-240 (domain or fragment)
chain: MAHYPTRLKTRKTYSWVGRPLLDRKLHYQTYREMCVKTEGCSTEIHIQIGQFVLIEGDDDENPYVAKLLELFEDDSDPPPKKRARVQWFVRFCEVPACKRHLLGRKPGAQEIFWYDYPACDSNINAETIIGLVRVIPLAPKDVVPTNLKNEKTLFVKLSWNEKKFRPLSSELFAELNKPQESAAKCQKPVRAKSKSAESPSWTPAEHVAKRIESRHSASKSRQTPTHPLTPRARKRLELG
B7: MBP-ORC1-180-240 (domain or fragment)
chain: QESAAKCQKPVRAKSKSAESPSWTPAEHVAKRIESRHSASKSRQTPTHPLTPRARKRLELG
B8: MBP-ORC1-230-400 A-A (domain or fragment)
chain: T2 sequence with K6A, L8A
B9: MBP-ORC1 fragment (165-250) (domain or fragment)
chain: FRPLSSELFAELNKPQESAAKCQKPVRAKSKSAESPSWTPAEHVAKRIESRHSASKSRQTPTHPLTPRARKRLELGNLGNPQMSQQ
B10: MBP-ORC1-230-400 (domain or fragment)
chain: T2 sequence
B11: MBP-ORC1 180-400 (domain or fragment)
chain: QESAAKCQKPVRAKSKSAESPSWTPAEHVAKRIESRHSASKSRQTPTHPLTPRARKRLELGNLGNPQMSQQTSCASLDSPGRIKRKVAFSEITSPSKRSQPDKLQTLSPALKAPEKTRETGLSYTEDDKKASPEHRIILRTRIAASKTIDIREERTLTPISGGQRSSVVPSVILKPENIKKRDAKEAKAQNEATSTPHRIRRKSSVLTMNRIRQQLRFLGN
B12: MBP-ORC1-350-400 (domain or fragment)
chain: SVILKPENIKKRDAKEAKAQNEATSTPHRIRRKSSVLTMNRIRQQLRFLGN
B13: ORC1-180-240-His (domain or fragment)
chain: B7 chain
B14: GST-CDC6 with internal deletion of 71-90 (natural protein)
chain: MPQTRSQAQATISFPKRKLSRALNKAKNSSDAKLEPTNVQTVTCSPRVKALPLSPRKRLGDDNLCNTPHLLKGRRLVFDNQLTIKSPSKRELAKVHQNKILSSVRKSQEITTNSEQRCPLKKESACVRLFKQEGTCYQQAKLVLNTAVPDRLPAREREMDVIRNFLREHICGKKAGSLYLSGAPGTGKTACLSRILQDLKKELKGFKTIMLNCMSLRTAQAVFPAIAQEICQEEVSRPAGKDMMRKLEKHMTAEKGPMIVLVLDEMDQLDSKGQDVLYTLFEWPWLSNSHLVLIGIANTLDLTDRILPRLQAREKCKPQLLNFPPYTRNQIVTILQDRLNQVSRDQVLDNAAVQFCARKVSAVSGDVRKALDVCRRAIEIVESDVKSQTILKPLSECKSPSEPLIPKRVGLIHISQVISEVDGNRMTLSQEGAQDSFPLQQKILVCSLMLLIRQLKIKEVTLGKLYEAYSKVCRKQQVAAVDQSECLSLSGLLEARGILGLKRNKETRLTKVFFKIEEKEIEHALKDKALIGNILATGLP

Holding throughout (assay): pull-down
One assay deals with T1, MBP-ORC1.
The next assay has as its target T2, ORC1 230-400-His.
The target of the next assay is T3, GST-CDC6.
For the assay “ORC1-180-240-His”, the target named is B13.
The target in the assay “MBP-ORC1-230-400” is B10.

Where a chain is given by its changes, count along the chain named.

As for B1, the binding result with MBP-ORC1 is listed as “binds”.

On to B2, for which the binding result with MBP-ORC1 is given as “binds”.

Regarding B3, the binding result in the assay with MBP-ORC1 was “binds”.

Consider B4, for which the binding result with MBP-ORC1 is reported as “binds”.

Consider B5, for which the binding result with ORC1 230-400-His is “binds”.

As to B6, in the assay with GST-CDC6, the binding result was “binds”.

For the molecule B7, the binding result with GST-CDC6 is reported as “binds”.

As for B8, the binding result with GST-CDC6 is listed as “binds”.

Regarding B9, the binding result in the assay with GST-CDC6 is given as “binds”.

Regarding B10, the binding result with GST-CDC6 is “binds”.

As for B11, the binding result in the assay with GST-CDC6 was “binds”.

As to B12, the binding result with ORC1-180-240-His and with GST-CDC6 was “binds” in each case.

As for B13, the binding result in the assay with MBP-ORC1-230-400 is “binds”.

For the molecule B14, the binding result in the assay with MBP-ORC1 is “binds”.
